The supplement of paper PMC9170038

system: MS2 coat protein; assay: apparent KD of MS2 coat protein; higher = weaker reporter binding; settings: Eterna round: R107; input ligand: theophylline 20 uM
Procedure, shortened: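 Designed RNA switches were transcribed on-chip from Illumina sequencing clusters. SNAP-549-labelled MS2 coat protein was titrated onto them in twofold steps from 0.7 or 1.5 nM to 3 µM in 100 mM Tris-HCl pH 7.5, 80 mM KCl, 4 mM MgCl2, either without or with constant ligand. Apparent KD reflects the per-design median of normalised cluster binding-curve fits.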

“GUCUCUGGGAGAAGGAGCGUGAAGACAUGAGGAUCACCCAUGUAGAGGCGCCGACGGCGUUCGCAGGUAGGUCGCUCCCAGAGAC [#1 Same State - Arginine B Attempt #18 (HarryS)]” and “AGAAUACAUGUUUUAAUACGGAAAACUGAUACCAGUGUAUCUAUUCACCCUUGGCAGCAGAGACAUGAGGAUCACCCAUGUAUUA [JR_Nu_SSTheophyA_Sub019]” are within 1.5-fold of each other in “apparent KD of MS2 coat protein” value: 44.5 nM for the first, 41.2 nM for the second.

First: ACAUGAGGAUCACCCAUGUAACAACGGGAAGGAGCGCCAAACAAGGCAGGUAGGUCGCCCACAUGAGGAUCACCCAUGUGUUGGG [Exclusion Arginine A GF 27]
Second: UGUAUGUGAUUUGAUACCAGACCAGCGGGUGUUACUUGAGGAACACCCAAGUAGGUUUGGGUCCCUUGGCAGCAAAUCGCAUACU [SS Theo B #24 Ms9]
The “apparent KD of MS2 coat protein” value of the first is 7.6-fold lower: 40.7 nM for the first, 309 nM for the second.

Going from “CACAUGAGGAUCACCCAUGUCUGAACUGAAGGAGCGCUAAACAAGGCAGGUAGGUCGCGGAAUUUUGUGUGCAUAUGCACACGGG [9.R]” to “GUCACACAGUAGGAUACCAGCGUGGCUUAUCCCUGAUCGUACAUGAGGAUCACCCAUGUCCGCCCUUGGCAGCCUCCUGCUCGGA [theeternabot_exclusion_MS2_Theo_B_33]”, the “apparent KD of MS2 coat protein” value falls from 32.7 nM to 17.7 nM (1.8-fold).

“UAUUAUAACCGAAGGAGCGGGAAAGAUGAUUUUUAAUAUUAACAUGAGGAUCACCCAUGUACCCAGGUAGGUCGCGGAUAUUAUU [Default title]” and “UUCACGGGCACGGCCGCCACUAACCAACAUGAGGAUCACCCAUGUGUAUUGGACGACCUCUUUGCUAGGACCGGGUGUAUGGUUC [theeternabot_exclusion_MS2_Trp_B_15]” are within 1.5-fold of each other in “apparent KD of MS2 coat protein” value: 23.4 nM for the first, 32.3 nM for the second.

“ACCUACACGGAGACGUGUAGGAGUAAUGAUACCAGCAUGGAGACAUGCCCUUGGCAGCGUUACAUGAGGAUCACCCAUGUAGUGC [ETHA #5]” and “AAAAUAUACGGAAGGAGCGUGUAAGAUUAAGAACAUGAGGAUCACCCAUGUUUUAAGGGAACACAGGUAGGUCGCCGUAUAUAAA [11.N]” are within 1.5-fold of each other in “apparent KD of MS2 coat protein” value: 14.2 nM for the first, 11.6 nM for the second.

Going from “UACUUGCUGACGGCCGCCACUAGAACAUGAGGAUCACCCAUGUACGGCGGCCGUCAUGGGUGGACUAGGACCGGGUCAGCAAGAU [(Trp1)-(Ms2)-(T)'-(M)'-(Trp2)_Design6]” to “UUUACAUGAGGAUCACCCAUGUGCCAUGAUACCAGACAUGAAAAUGUCCCUUGGCAGCAUGGGUGUAGCGUCGGGAAACCGACGC [Kohoutovice]”, the “apparent KD of MS2 coat protein” value rises from 20.5 nM to 545 nM (27-fold).

First: AAAACUCAUGGCUUAUAUCCGUGUCUCGAAGGAGCGUACAGCGGUACAGGUAGGUCGCGAGACAUGAGGAUCACCCAUGUGUAAA [XArg-A 20 V1&2 original #dotplot2>1]
Second: UGUAUGUGAUUUGAUACCAGACCAACUGGUAAAACAUGAGGAUCACCCAUGUAAACUUGGGUCCCUUGGCAGCAAAUCGCAUACU [SSTheo B #22]
The “apparent KD of MS2 coat protein” value of the first is 2.6-fold higher: 119 nM for the first, 45.6 nM for the second.

First: AGAACUUUGGUGGAUACCAGCUUCUGGCCAUCCUUCAAAUACAUGAGGAUCACCCAUGUUAGCCCUUGGCAGCCAACAUAGACUG [theeternabot_exclusion_MS2_Theo_B_44]
Second: AUCACUGUGAAAGAUACCAGCGCCCUACCUAUCUUCUGUUACAUGAGGAUCACCCAUGUUCGCCCUUGGCAGCUUGAGAUGGAUC [theeternabot_exclusion_MS2_Theo_B_11]
The “apparent KD of MS2 coat protein” value of the first is 2.3-fold lower: 33 nM for the first, 75.1 nM for the second.

Compared with “UACUUGCUGACGGCCGCCACUAGAACAUGAGGAUCACCCAUGUAUGGCGGCCGUCAUGGGUGGACUAGGACCGGGUCAGCAAGAU [(Trp1)-(Ms2)-(T)'-(M)'-(Trp2)_Design7]”, “UAUCGUCAGACGGCCGCCACUAGAACAUGAGGAUCACCCAUGUACCCGGUCCAUUCCUCAUUAACUAGGACCGGGUCUGACGAAU [(Trp1)-(Ms2)-(T)'-(M)'-(Trp2)_Design13]” is 8.8-fold higher in “apparent KD of MS2 coat protein” value: 14.6 nM for the first, 129 nM for the second.

For “AAAUAAAUACAUGAGGAUCACCCAUGUGAAGGAGCGCCCGUUAGGGCAGGUAGGUCGCACAUGAAUAACUCCGCGCGAAAGCGCA [MAT - Exclusion Arginine A - Mod of Eli - D10]”, the “apparent KD of MS2 coat protein” value was 37.1 nM.

same assay, conditions: Eterna round: R107; input ligand: theophylline 2 mM

“UUAAUCAUAUAUGAAAACAUAUAUGCAGAAGGAGCGUGAUAAAACACAGGUAGGUCGCUGAAGGGAACAUGAGGAUCACCCAUGU [AstrosSSArgA#2]” and “UUCAGCUAGUCGGCCGCCACUACACGAGGAUCACCCGUGUUCCUAAAACACUGCUUCGGCAGUGGUAGGACCGGGACUAGCUGAG” are within 1.5-fold of each other in “apparent KD of MS2 coat protein” value: 31.5 nM for the first, 36.7 nM for the second.

“AACAUGAGGAUCACCCAUGUCUGAACUGAAGGAGCGCUAAAUAAGGCAGGUAGGUCGCGGAAUUUUGUGUAUAUAUAUAUAUGGG [9.G]” and “GCACAAGAUGGAAGGAGCGCUGGUAAAAGUCACAUGAGGAUCACCCAUGUGCUCCUUGCCGAGCAGGUAGGUCGCCAUCUUGUGC [SSAB NP+V+V2 #4]” are within 1.5-fold of each other in “apparent KD of MS2 coat protein” value: 25 nM for the first, 33.2 nM for the second.

“CACUACAUGAGGAUCACCCAUGUAUACUGACGAGGACCGGUACGGCCGCCACUCGAACCGAAACCGACUUCAUUCUGUGUACCAU [theeternabot_sameState_MS2_Trp_A_26]” and “AGUACAUGAGGAUCACCCAUGUAUCGGUACCGAGGACCGGUACGGCCGCCACUCGCAGGACAUGAGGAUCACCCAUGUGCCGCCG [SSTA DOUBLE!!! :-D #9]” are within 1.5-fold of each other in “apparent KD of MS2 coat protein” value: 19.3 nM for the first, 22.4 nM for the second.

“GGAGCUACGUCGGCCGCCACUAGCGGUAAUUACGUGUACAUGAGGAUCACCCAUGUAAUAUGGACUAGGACCGGGACGUAGCUCC [Salmon]” and “UUCAGCUAGUCGGCCGCCACUACAAGAGGAUCACCCUUGUAAUCCUAACACUGCUUCGGCAGUGGUAGGACCGGGACUAGCUGAG” are within 1.5-fold of each other in “apparent KD of MS2 coat protein” value: 13.7 nM for the first, 13.8 nM for the second.

First: GUAAUGAUAAGAAGGAGCGUCGAAAAUGGGUAAACAUGAGGAUCACCCAUGUAAAGGGAACGACAGGUAGGUCGCUUAUUAUUAC [AstromonsSSArgB#21]
Second: CUCCCGUGGUCGGCCGCCACUGGAGGCCUUGCGCGACAUGAGGAUCACCCAUGUGGGCCCGGCGUCAGGACCGGGAUCGCGUGAG [#1 Same State - Tryptophan B Attempt #11 (HarryS)]
The “apparent KD of MS2 coat protein” value of the first is 13-fold higher: 203 nM for the first, 16.2 nM for the second.

Compared with “UAUCCACAUGAGGAUCACCCAUGUAGGGAAGGAGCGGUGAUUUCACCAGGUAGGUCGCCUUACUGAGGAGAGCCGGUGGAAUCGU [Exclusion - Arginine A (Freestyle 31)]”, “GACAUGAGGAUCACCCAUGUUUGCUAUGAAGGAGCGUCGGAAAUGACAGGUAGGUCGCAUAGUAGGCCUUGUAUUUUGUGUGUUU [EAA #8]” is 3-fold lower in “apparent KD of MS2 coat protein” value: 32.9 nM for the first, 10.8 nM for the second.

First: GUCUCUGGGAGAAGGAGCGUGAAGACAUGAGGAUCACCCAUGUAGAGGCGCCGACGGCGUUCGCAGGUAGGUCGCUCCCAGAGAC [#1 Same State - Arginine B Attempt #18 (HarryS)]
Second: ACAUGAGGAUCACCCAUGUAACAACGGGAAGGAGCGCCAAACAAGGCAGGUAGGUCGCCCACAUGAGGAUCACCCAUGUGUUGGG [Exclusion Arginine A GF 27]
The “apparent KD of MS2 coat protein” value of the first is 2.8-fold higher: 110 nM for the first, 39.1 nM for the second.

First: UGUAUGUGAUUUGAUACCAGACCAGCGGGUGUUACUUGAGGAACACCCAAGUAGGUUUGGGUCCCUUGGCAGCAAAUCGCAUACU [SS Theo B #24 Ms9]
Second: CACAUGAGGAUCACCCAUGUCUGAACUGAAGGAGCGCUAAACAAGGCAGGUAGGUCGCGGAAUUUUGUGUGCAUAUGCACACGGG [9.R]
The “apparent KD of MS2 coat protein” value of the first is 67-fold higher: 1410 nM for the first, 21.1 nM for the second.

First: UAUUAUAACCGAAGGAGCGGGAAAGAUGAUUUUUAAUAUUAACAUGAGGAUCACCCAUGUACCCAGGUAGGUCGCGGAUAUUAUU [Default title]
Second: UUCACGGGCACGGCCGCCACUAACCAACAUGAGGAUCACCCAUGUGUAUUGGACGACCUCUUUGCUAGGACCGGGUGUAUGGUUC [theeternabot_exclusion_MS2_Trp_B_15]
The “apparent KD of MS2 coat protein” value of the first is 1.6-fold lower: 20.7 nM for the first, 32.6 nM for the second.

“ACCUACACGGAGACGUGUAGGAGUAAUGAUACCAGCAUGGAGACAUGCCCUUGGCAGCGUUACAUGAGGAUCACCCAUGUAGUGC [ETHA #5]” and “AAAAUAUACGGAAGGAGCGUGUAAGAUUAAGAACAUGAGGAUCACCCAUGUUUUAAGGGAACACAGGUAGGUCGCCGUAUAUAAA [11.N]” are within 1.5-fold of each other in “apparent KD of MS2 coat protein” value: 12.8 nM for the first, 10.3 nM for the second.
